Patent US20140178935A1 (AVEO PHARMACEUTICALS, published 2014)

Experiments:
[1] = molecular target: T1, recombinant human HGF (R&D Systems, Catalog No. 294-HGN-025) (human, UniProt P14210 32-728); experiment: SPR, captured antibody, HGF injected, 25 C
T1 construct: Mature HGF is a disulfide-linked heterodimer of alpha and beta chain cut from one precursor; also called rhHGF (R&D Systems); rhHGF
Description: (§1) Mouse anti-human immunoglobulins (Jackson Labs, Catalog No. 209-005) were immobilized on carboxymethylated dextran CM4 sensor chips (BIAcore, Catalog No. BR-1006-68) by amine coupling (BIAcore, Catalog No. BR-1000-50) using a standard coupling protocol according to manufacturer's instructions. The analyses were performed at 25° C. using PBS (GIBCO, Catalog No. 14040-133) containing 0.05% surfactant P20 (BIAcore, Catalog No. BR-1000-54), and 2 mg/mL BSA (EMD, Catalog No. 2930).
(§2) The antibodies were captured in an individual flow cell at a flow rate of 10 μL/min. Injection time was variable for each antibody to yield approximately 20 RU of antibody captured for each cycle. […] The dissociation phase was monitored for 15 or 90 minutes, depending on concentration. The surface then was regenerated with 10 mM Glycine-HCl, pH 2.2 (BIAcore, Catalog No. BR-1003-54) injected for 3 minutes at a flow rate of 60 μL/min before another cycle was initiated.
Kinetic parameters were determined using the kinetic function of the BIAevalutation™ software with reference subtraction.

[2] = molecular target: T1, recombinant human HGF (R&D Systems, …); experiment: cell-based or functional assay
[3] = molecular target: T1, recombinant human HGF (R&D Systems, …); experiment: competition ELISA (DELFIA): antibody inhibits biotinylated c-Met binding to plate-coated HGF
Description: The plates then were blocked with 200 μL of 5% non-fat dry milk in PBS for 1 hour at room temperature. […] 100 μL of sample per well was transferred to the assay plate and incubated for 2 hours at room temperature. The resulting plates were washed three times with PBS-0.1% Tween 20, and incubated for 1 hour at room temperature with Eu-labeled Streptavidin (Wallac, Catalog No. 1244-360) diluted 1:1000 in DELFIA assay buffer (Wallac, Catalog No. 4002-0010). The resulting plates were washed 3 times with DELFIA wash solution (Wallac, Catalog No. 4010-0010) and incubated with 100 μL/well DELFIA enhancement solution (Wallac #4001-0010) for 15 minutes at room temperature with agitation. The plates were read on Victor³V instrument (Perkin Elmer) using the Europium method. The IC₅₀ values were calculated using Prism.

[4] = molecular target: T1, recombinant human HGF (R&D Systems, …); experiment: cell-based or functional assay; remark: listed apart in the source
[5] = molecular target: T2, recombinant mhm chimeric HGF protein containing human W507-L585 HGF sequence disposed within mouse HGF … (mouse-human-mouse chimera, UniProt Q08048 56-728); experiment: SPR, antibody immobilized, HGF protein injected, 25 C
T2 construct: CHO supernatant; also called mhm chimera (W507-L585); MHM chimera (507-585)
T2 chain: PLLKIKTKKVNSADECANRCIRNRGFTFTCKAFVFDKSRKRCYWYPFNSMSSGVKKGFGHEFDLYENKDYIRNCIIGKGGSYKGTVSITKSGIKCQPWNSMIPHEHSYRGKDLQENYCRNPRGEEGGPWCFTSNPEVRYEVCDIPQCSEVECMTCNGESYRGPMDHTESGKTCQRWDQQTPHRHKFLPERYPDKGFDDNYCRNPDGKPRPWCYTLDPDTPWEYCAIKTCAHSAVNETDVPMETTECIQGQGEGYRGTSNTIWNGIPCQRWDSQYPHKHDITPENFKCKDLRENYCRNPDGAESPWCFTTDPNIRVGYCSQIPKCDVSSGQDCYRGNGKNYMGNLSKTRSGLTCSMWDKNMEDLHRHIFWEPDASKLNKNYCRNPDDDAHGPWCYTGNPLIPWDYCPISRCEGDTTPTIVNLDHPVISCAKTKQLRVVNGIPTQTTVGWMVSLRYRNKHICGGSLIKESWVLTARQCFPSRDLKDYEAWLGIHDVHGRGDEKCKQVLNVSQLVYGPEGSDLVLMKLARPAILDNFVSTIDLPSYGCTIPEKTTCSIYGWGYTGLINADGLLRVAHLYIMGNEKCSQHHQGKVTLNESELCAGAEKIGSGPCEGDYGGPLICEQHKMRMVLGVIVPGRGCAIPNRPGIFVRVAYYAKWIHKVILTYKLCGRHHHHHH
Description: (§3) Analyses were performed at 25° C. using PBS (GIBCO, Catalog No. 14040-133) containing 0.05% surfactant P20 (BIAcore, Catalog No. R-1000-54), 2 mg/mL BSA (EMD, Catalog No. 2930) and 10 mg/mL CM-Dextran Sodium salt (Fluka, Catalog No. 86524) as running buffer. […] The resulting binding was determined as resonance units (RU) over baseline 30 seconds after the end of injection. […] Non-specific binding was monitored by comparing binding to a control surface.

[6] = molecular target: T3, recombinant mouse HGF (R&D Systems) (mouse, UniProt Q08048 33-728); experiment: as above
T3 construct: Bought protein, construct not described; also called rmHGF (R&D Systems); murine HGF
T3 sequence (Q08048 33-728 limits assumed): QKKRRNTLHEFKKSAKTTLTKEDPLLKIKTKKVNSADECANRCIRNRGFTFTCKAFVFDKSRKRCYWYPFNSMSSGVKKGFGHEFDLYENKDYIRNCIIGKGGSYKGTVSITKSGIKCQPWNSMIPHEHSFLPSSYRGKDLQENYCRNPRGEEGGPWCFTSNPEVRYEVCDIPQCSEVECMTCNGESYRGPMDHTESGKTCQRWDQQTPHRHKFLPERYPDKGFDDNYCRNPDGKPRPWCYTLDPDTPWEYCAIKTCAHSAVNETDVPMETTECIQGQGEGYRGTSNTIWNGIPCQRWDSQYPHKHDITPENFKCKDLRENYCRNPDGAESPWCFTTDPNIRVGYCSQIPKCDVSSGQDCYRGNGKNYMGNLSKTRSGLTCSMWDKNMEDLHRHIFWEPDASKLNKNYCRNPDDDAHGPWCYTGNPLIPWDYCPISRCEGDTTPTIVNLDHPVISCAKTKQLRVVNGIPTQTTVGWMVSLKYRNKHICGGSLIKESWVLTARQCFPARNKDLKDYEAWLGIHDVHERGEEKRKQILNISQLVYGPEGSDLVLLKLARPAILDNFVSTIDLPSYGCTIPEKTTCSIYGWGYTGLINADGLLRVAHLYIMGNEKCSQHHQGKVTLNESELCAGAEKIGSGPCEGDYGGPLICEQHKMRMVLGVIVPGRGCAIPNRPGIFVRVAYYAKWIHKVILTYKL
Description: as §3

[7] = molecular target: T4, recombinant mhm chimeric HGF protein containing the region I499-R556 of hHGF disposed between murine sequences (mouse-human-mouse chimera, UniProt Q08048 56-728); experiment: as above
T4 construct: also called mhm chimera (I499-R556)
T4 chain: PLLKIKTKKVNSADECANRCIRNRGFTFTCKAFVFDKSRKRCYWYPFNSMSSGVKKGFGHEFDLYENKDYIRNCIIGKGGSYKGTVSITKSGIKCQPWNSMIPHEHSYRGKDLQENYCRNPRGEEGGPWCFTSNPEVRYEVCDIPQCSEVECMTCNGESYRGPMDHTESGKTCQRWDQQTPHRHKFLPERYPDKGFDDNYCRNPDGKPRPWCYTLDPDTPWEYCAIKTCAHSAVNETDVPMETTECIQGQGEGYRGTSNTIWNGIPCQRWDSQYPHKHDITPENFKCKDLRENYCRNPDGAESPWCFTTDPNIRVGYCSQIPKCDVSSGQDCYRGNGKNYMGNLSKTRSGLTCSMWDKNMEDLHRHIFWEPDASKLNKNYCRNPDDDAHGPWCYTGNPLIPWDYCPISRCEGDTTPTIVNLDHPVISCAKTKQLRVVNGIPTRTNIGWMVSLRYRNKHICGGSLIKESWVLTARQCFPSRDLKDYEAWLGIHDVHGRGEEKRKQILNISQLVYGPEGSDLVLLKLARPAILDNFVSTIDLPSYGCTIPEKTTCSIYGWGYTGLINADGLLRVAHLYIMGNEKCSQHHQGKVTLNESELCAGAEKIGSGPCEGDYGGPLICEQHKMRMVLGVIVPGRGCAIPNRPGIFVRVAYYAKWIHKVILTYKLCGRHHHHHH
Description: as §3

[8] = molecular target: T1, recombinant human HGF (R&D Systems, …); experiment: SPR, captured antibody, HGF injected, 37 C
Description: as §1, with “209-005) or rabbit anti-mouse immunoglobulins (BIAcore, Catalog No. BR-1005-14)” for “209-005)”, “instructions. […]” for “instructions.”, “25° C. and 37°” for “25°”, “2930) as running buffer.” for “2930).”
as §2, with “[…].” for “μL/min.”, “surface of mouse anti-human immunoglobulins sensor chips was” for “surface”, “then” for “then was”, “initiated. The surface of rabbit anti-mouse immunoglobulins sensor chips was regenerated with 10 mM Glycine-HCl, pH 1.7 (BIAcore, Catalog No. BR-1003-54) injected for 3 minutes at a flow rate of 60 μL/min before another cycle was initiated.” for “initiated.”
Kinetic parameters were determined using the kinetic function of the BIAevaluation software with reference subtraction.

T1 sequence (P14210 32-728 limits assumed): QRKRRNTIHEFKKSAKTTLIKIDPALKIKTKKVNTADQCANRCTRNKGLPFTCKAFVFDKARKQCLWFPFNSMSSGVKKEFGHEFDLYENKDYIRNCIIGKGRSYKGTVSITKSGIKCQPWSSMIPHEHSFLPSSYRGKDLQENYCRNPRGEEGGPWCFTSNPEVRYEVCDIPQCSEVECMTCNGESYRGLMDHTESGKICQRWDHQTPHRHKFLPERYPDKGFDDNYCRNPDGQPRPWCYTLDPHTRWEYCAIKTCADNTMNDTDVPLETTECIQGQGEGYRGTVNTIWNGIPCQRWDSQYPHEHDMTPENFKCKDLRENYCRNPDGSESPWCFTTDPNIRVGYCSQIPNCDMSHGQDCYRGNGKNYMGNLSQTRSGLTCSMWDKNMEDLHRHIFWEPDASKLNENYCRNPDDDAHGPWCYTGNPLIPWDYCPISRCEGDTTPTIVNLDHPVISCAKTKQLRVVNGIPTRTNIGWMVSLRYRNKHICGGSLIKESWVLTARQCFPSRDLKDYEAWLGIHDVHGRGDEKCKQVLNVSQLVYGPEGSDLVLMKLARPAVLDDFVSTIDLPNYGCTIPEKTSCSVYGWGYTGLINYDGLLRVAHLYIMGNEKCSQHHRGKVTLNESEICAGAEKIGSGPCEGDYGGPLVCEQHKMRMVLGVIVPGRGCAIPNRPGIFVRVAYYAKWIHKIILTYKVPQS

B1: HE2B8-1 (LR2B8HC + IgG1 constant region G1m(3) allotype allele 1, plus LR2B8LC + Kappa constant region Km(3) allotype allele 1) (antibody, V domains shown)
VH: QVQLVQPGAEVVKPGTSVKLSCKASGYTFTTYWMHWVNQAPGQGLEWIGEINPTNGHTNYNEKFKGKATLTVDKSTSTAYMELSSLRSEDTAVYYCARNYVGSIFDYWGQGTLLTVSS
VL: DIVMTQSPDSMAMSVGERVTLNCKASENVVSYVSWYQQKPGQSPKLLIYGASNRNTGVPDRFSGSGSATDFTLTISSVQAEDVADYHCGQSYNYPYTFGQGTKLEIKR
notes: Human Engineered 2B8 variant, human IgG1 kappa, made in HEK293E cells
A Kd [1] of 7.1 pM, a koff [1] of 1.4e-05 s⁻¹ and a kon [1] of 2.2e+06 M⁻¹ s⁻¹ were found for B1 in this work. The “IC50, neutralization of HGF stimulated BrdU incorporation in 4 MBr-5 cells” value (from here on “IC50, neutralization”) [2] was 0.47 nM, the IC50 [3] was 6 nM and the “EC50, inhibition of HGF-stimulated c-Met phosphorylation in PC-3 cells, Average of Two Trials” value (from here on “EC50, inhibition”) [4] was 0.8 nM. B1: binds [5]; no binding [6]; binds [7].

B2: HE2B8-2 (LR2B8HC + IgG1 constant region G1m(3) allotype allele 1, plus LRMR2B8LC + Kappa constant region Km(3) allotype allele 1) (antibody, V domains shown)
VH: QVQLVQPGAEVVKPGTSVKLSCKASGYTFTTYWMHWVNQAPGQGLEWIGEINPTNGHTNYNEKFKGKATLTVDKSTSTAYMELSSLRSEDTAVYYCARNYVGSIFDYWGQGTLLTVSS
VL: DIVMTQSPDSLAMSLGERVTLNCKASENVVSYVSWYQQKPGQSPKLLIYGASNRESGVPDRFSGSGSATDFTLTISSVQAEDVADYHCGQSYNYPYTFGQGTKLEIKR
notes: as for B1
A Kd [1] of 5.2 pM, a koff [1] of 9.6e-06 s⁻¹ and a kon [1] of 1.8e+06 M⁻¹ s⁻¹ were found for B2 in this work. For the same binder, the “IC50, neutralization” value [2] was 0.66 nM, the IC50 [3] was 5.7 nM and the “EC50, inhibition” value [4] was 0.88 nM. B2: binds [5]; no binding [6]; binds [7].

B3: HE2B8-3 (LRMR2B8HC + IgG1 constant region G1m(3) allotype allele 1, plus LR2B8LC + Kappa constant region Km(3) allotype allele 1) (antibody, V domains shown)
VH: QVQLVQPGAEVKKPGTSVKLSCKASGYTFTTYWMHWVRQAPGQGLEWIGEINPTNGHTNYNQKFQGRATLTVDKSTSTAYMELSSLRSEDTAVYYCARNYVGSIFDYWGQGTLLTVSS
VL: DIVMTQSPDSMAMSVGERVTLNCKASENVVSYVSWYQQKPGQSPKLLIYGASNRNTGVPDRFSGSGSATDFTLTISSVQAEDVADYHCGQSYNYPYTFGQGTKLEIKR
notes: as for B1
A Kd [1] of 2 pM, a koff [1] of 4.1e-06 s⁻¹ and a kon [1] of 2e+06 M⁻¹ s⁻¹ were found for B3 in this work. The “IC50, neutralization” value [2] was 0.55 nM, the IC50 [3] was 5.9 nM and the “EC50, inhibition” value [4] was 0.79 nM. B3: binds [5]; no binding [6]; binds [7].

B4: sh2B8-9 (G1m(3)) = hu2B8 Hv5-51.1 + IgG1 constant region (G1m(3) allotype, allele 2) plus hu2B8 Kv1-39.1 + Kappa constant region (Km(3) allotype, allele 2) (antibody)
heavy: not shown
light: DIQMTQSPSSLSASVGDRVTITCKASENVVSYVSWYQQKPGKAPKLLIYGASNRNTGVPSRFSGSGSGTDFTLTISSLQPEDFATYYCGQSYNYPYTFGQGTKLEIKRTVAAPSVFIFPPSDEQLKSGTASVVCLLNNFYPREAKVQWKVDNALQSGNSQESVTEQDSKDSTYSLSSTLTLSKADYEKHKVYACEVTHQGLSSPVTKSFNRGEC
notes: Superhumanized 2B8 variant, human IgG1 kappa, made in 293T cells
For B4, the “IC50, neutralization” value [2] was 0.52 nM, the IC50 [3] was 4.2 nM and the Kd [8] was 5.8 pM. For the same binder, the koff [8] was 1.4e-05 s⁻¹, the kon [8] was 2.5e+06 M⁻¹ s⁻¹ and the “EC50, inhibition” value [4] was 0.93 nM. B4: binds [5]; no binding [6]; binds [7].
